The chains are these.
B1: Recombinant human Fc-tagged SEMA6B extracellular domain (Fc fusion)
chain: LFPEEPPPLSVAPRDYLNHYPVFVGSGPGRLTPAEGADDLNIQRVLRVNRTLFIGDRDNLYRVELEPPTSTELRYQRKLTWRSNPSDINVCRMKGKQEGECRNFVKVLLLRDESTLFVCGSNAFNPVCANYSIDTLQPVGDNISGMARCPYDPKHANVALFSDGMLFTATVTDFLAIDAVIYRSLGDRPTLRTVKHDSKWFKEPYFVHAVEWGSHVYFFFREIAMEFNYLEKVVVSRVARVCKNDVGGSPRVLEKQWTSFLKARLNCSVPGDSHFYFNVLQAVTGVVSLGGRPVVLAVFSTPSNSIPGSAVCAFDLTQVAAVFEGRFREQKSPESIWTPVPEDQVPRPRPGCCAAPGMQYNASSALPDDILNFVKTHPLMDEAVPSLGHAPWILRTLMRHQLTRVAVDVGAGPWGNQTVVFLGSEAGTVLKFLVRPNASTSGTSGLSVFLEEFETYRPDRCGRPGGGETGQRLLSLELDAASGGLLAAFPRCVVRVPVARCQQYSGCMKNCIGSQDPYCGWAPDGSCIFLSPGTRAAFEQDVSGASTSGLGDCTGLLRASLSEDRAGLVSVNLLVTSS
B2: Recombinant human Fc-tagged SEMA6A extracellular domain (Fc fusion)
chain: GFPEDSEPISISHGNYTKQYPVFVGHKPGRNTTQRHRLDIQMIMIMNGTLYIAARDHIYTVDIDTSHTEEIYCSKKLTWKSRQADVDTCRMKGKHKDECHNFIKVLLKKNDDALFVCGTNAFNPSCRNYKMDTLEPFGDEFSGMARCPYDAKHANVALFADGKLYSATVTDFLAIDAVIYRSLGESPTLRTVKHDSKWLKEPYFVQAVDYGDYIYFFFREIAVEYNTMGKVVFPRVAQVCKNDMGGSQRVLEKQWTSFLKARLNCSVPGDSHFYFNILQAVTDVIRINGRDVVLATFSTPYNSIPGSAVCAYDMLDIASVFTGRFKEQKSPDSTWTPVPDERVPKPRPGCCAGSSSLERYATSNEFPDDTLNFIKTHPLMDEAVPSIFNRPWFLRTMVRYRLTKIAVDTAAGPYQNHTVVFLGSEKGIILKFLARIGNSGFLNDSLFLEEMSVYNSEKCSYDGVEDKRIMGMQLDRASSSLYVAFSTCVIKVPLGRCERHGKCKKTCIASRDPYCGWIKEGGACSHLSPNSRLTFEQDIERGNTDGLGDCHNSFVALNGHSSSLLPSTTTSDSTAQEGYESRGGMLDWKHLLDSPDSTDPLGAVSSHNHQDKKGVIRESYLKGHDQLVPVT
B3: TcsL_(1285-1804) (domain or fragment)
chain: TNVRINLDGNTRSFIVPVITTEQIRKNLSYSFYGSGGSYSLSLSPYNMNIDLNLVENDTWVIDVDNVVKNITIESDEIQKGELIENILSKLNIEDNKIILNNHTINFYGDINESNRFISLTFSILEDINIIIEIDLVSKSYKILLSGNCMKLIENSSDIQQKIDHIGFNGEHQKYIPYSYIDNETKYNGFIDYSKKEGLFTAEFSNESIIRNIYMPDSNNLFIYSSKDLKDIRIINKGDVKLLIGNYFKDDMKVSLSFTIEDTNTIKLNGVYLDENGVAQILKFMNNAKSALNTSNSLMNFLESINIKNIFYNNLDPNIEFILDTNFIISGSNSIGQFELICDKDKNIQPYFINFKIKETSYTLYVGNRQNLIVEPSYHLDDSGNISSTVINFSQKYLYGIDRYVNKVIIAPNLYTDEINITPVYKPNYICPEVIILDANYINEKINVNINDLSIRYVWDNDGSDLILIANSEEDNQPQVKIRFVNVFKSDTAADKLSFNFSDKQDVSVSKIISTFSLAA

Common to all, as to assay: BLI
The target of experiment [1] is TcsL (Paeniclostridium sordellii lethal toxin), recombinant His-tagged, full length (Paeniclostridium sordellii strain 6018, UniProt Q46342).
The target in experiment [2] is B1.
The target in experiment [3] is B2.

Turning to B1, the Kd in experiment [1] is roughly 60 nM. For the molecule B2, the Kd in experiment [1] is roughly 40 nM. On to B3, for which the binding result in experiment [2] and in experiment [3] was “binds” each time.

The term Kd denotes the free concentration of one partner at which half of the binding sites on the other are occupied at equilibrium, for simple one-to-one binding.

These data come from paper PMC7228847 (Cell host & microbe, 2020).
